Laboratory results: publication PMC4510650, “TD-60 links RalA GTPase function to the CPC in mitosis” (Nature Communications, 2015)

Biological target: T1, human TD-60 with an amino-terminal streptavidin-binding protein (SBP) tag (human, UniProt Q9P258 1-522)
T1 construct: TD-60 (RCC2), human; cDNA codon optimized and made synthetically; The far-western sentence says only 'purified TD-60'; The GEF assay names it 'SBP-tagged recombinant TD-60'; far-western methods are in the Supplementary Methods; also called SBP-TD-60; RCC2; source: Sf9 cells (baculovirus, pFastBacI), purified
Assay: far-Western; purified RalA or purified Ran tested on purified TD-60; details only in the Supplementary Methods
Conditions: both partners purified

T1 sequence (Q9P258 whole entry): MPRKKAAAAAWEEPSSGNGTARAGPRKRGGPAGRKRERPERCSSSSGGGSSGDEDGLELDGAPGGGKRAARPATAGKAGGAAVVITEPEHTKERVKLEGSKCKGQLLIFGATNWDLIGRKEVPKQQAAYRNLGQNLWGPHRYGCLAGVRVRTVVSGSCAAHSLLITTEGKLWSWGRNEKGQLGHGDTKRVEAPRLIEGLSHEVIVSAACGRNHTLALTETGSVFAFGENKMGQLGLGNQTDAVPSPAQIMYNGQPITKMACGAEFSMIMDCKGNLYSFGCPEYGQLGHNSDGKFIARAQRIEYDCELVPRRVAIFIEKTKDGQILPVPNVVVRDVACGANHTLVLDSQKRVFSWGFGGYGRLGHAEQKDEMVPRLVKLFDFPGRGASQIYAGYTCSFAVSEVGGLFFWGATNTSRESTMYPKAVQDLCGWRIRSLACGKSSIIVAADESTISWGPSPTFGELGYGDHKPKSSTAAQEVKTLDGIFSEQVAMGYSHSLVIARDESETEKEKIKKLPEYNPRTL

B1: purified human RalA (cloned into pFAT2) (natural protein, UniProt P11233 1-206, looked up)
chain: MAANKPKGQNSLALHKVIMVGSGGVGKSALTLQFMYDEFVEDYEPTKADSYRKKVVLDGEEVQIDILDTAGQEDYAAIRDNYFRSGEGFLCVFSITEMESFAATADFREQILRVKEDENVPFLLVGNKSDLEDKRQVSVEEAKNRAEQWNVNYVETSAKTRANVDKVFFDLMREIRARKMEDSKEKNGKKKRKSLAKRIRERCCIL
notes: RalA, human; The RalA of the GEF assay is called GST-tagged; also called Ras-related protein RalA; source: purified; cloned into pFAT2
Does B1 bind?
Result: binds
